The values below come from patent publication US20250114433A1 (published 2025).

Holding throughout (test): cytokine release
The target of experiment [1] is T1, KRAS G12V (same sequence in NRAS and HRAS G12V) peptide on HLA-A*11:01 (human).
T1 peptide: VVGAVGVGK

Experiment [2] has as its target T2, KRAS G12D (same sequence in NRAS and HRAS G12D) peptide on HLA-A*11:01 (human).
T2 peptide: VVGADGVGK

Experiment [3] concerns the target T3, KRAS G12D (same sequence in NRAS and HRAS G12D) peptide on HLA-A*11:01 (human).
T3 peptide: VVVGADGVGK

Experiment [4] concerns the target T4, KRAS G12V (same sequence in NRAS and HRAS G12V) peptide on HLA-A*11:01 (human).
T4 peptide: VVVGAVGVGK

B1: A11_TCR22 (TCR, V domains shown)
Valpha: QKEVEQDPGPLSVPEGAIVSLNCTYSNSAFQYFMWYRQYSRKGPELLMYTYSSGNKEDGRFTAQVDKSSKYISLFIRDSQPSDSATYLCAMSAGAAGNKLTFGGGTRVLVKP
Vbeta: EADIYQTPRYLVIGTGKKITLECSQTMGHDKMYWYQQDPGMELHLIHYSYGVNSTEKGDLSSESTVSRIRTEHFPLTLESARPSHTSQYLCASSQGLYNEQFFGPGTRLTVL
Turning to B1, the binding result in experiment [1] is listed as “no recognition”; in experiment [2] it was “no recognition”; in experiment [3] it was “recognises”; in experiment [4], “no recognition”.

B2: TCR21 (TCR, V domains shown)
Valpha: QKEVEQDPGPLSVPEGAIVSLNCTYSNSAFQYFMWYRQYSRKGPELLMYTYSSGNKEDGRFTAQVDKSSKYISLFIRDSQPSDSATYLCAMSGGNAGNMLTFGGGTRLMVKP
Vbeta: EADIYQTPRYLVIGTGKKITLECSQTMGHDKMYWYQQDPGMELHLIHYSYGVNSTEKGDLSSESTVSRIRTEHFPLTLESARPSHTSQYLCASSVGLYNEQFFGPGTRLTVL
As for B2, the binding result is recorded as “no recognition” in experiment [1], “no recognition” in experiment [2], “recognises” in experiment [3] and “no recognition” in experiment [4].

B3: A11 KRAS TCR_220_21 (TCR, V domains shown)
Valpha: GEDVEQSLFLSVREGDSSVINCTYTDSSSTYLYWYKQEPGAGLQLLTYIFSNMDMKQDQRLTVLLNKKDKHLSLRIADTQTGDSAIYFCAEPIIGGNTPLVFGKGTRLSVIA
Vbeta: GAGVSQSPRYKVAKRGQDVALRCDPISGHVSLFWYQQALGQGPEFLTYFQNEAQLDKSGLPSDRFFAERPEGSVSTLKIQRTQQEDSAVYLCASSSEGLAGGPTAGELFFGEGSRLTVL
Consider B3, for which the binding result was “no recognition” in experiment [2], “no recognition” in experiment [3] and “recognises” in experiment [4].

B4: A11_TCR16 (TCR, V domains shown)
Valpha: KDQVFQPSTVASSEGAVVEIFCNHSVSNAYNFFWYLHFPGCAPRLLVKGSKPSQQGRYNMTYERFSSSLLILQVREADAAVYYCVLNRDDKIIFGKGTRLHILP
Vbeta: DAGVIQSPRHEVTEMGQEVTLRCKPISGHDYLFWYRQTMMRGLELLIYFNNNVPIDDSGMPEDRFSAKMPNASFSTLKIQPSEPRDSAVYFCASSRLGPYNEQFFGPGTRLTVL
Regarding B4, the binding result is listed as “no recognition” in experiment [1], “no recognition” in experiment [2], “recognises” in experiment [3] and “no recognition” in experiment [4].

B5: TCR19 (TCR, V domains shown)
Valpha: DQQVKQNSPSLSVQEGRISILNCDYTNSMFDYFLWYKKYPAEGPTFLISISSIKDKNEDGRFTVFLNKSAKHLSLHIVPSQPGDSAVYFCAASANNNDMRFGAGTRLTVKP
Vbeta: DAGVIQSPRHEVTEMGQEVTLRCKPISGHDYLFWYRQTMMRGLELLIYFNNNVPIDDSGMPEDRFSAKMPNASFSTLKIQPSEPRDSAVYFCASSPTGGGMLGQYFGPGTRLTVL
For B5, the binding result in experiment [1] was “recognises”; in experiment [2], “no recognition”; in experiment [3], “no recognition”.

B6: A11 KRAS TCR_129_8 (TCR, V domains shown)
Valpha: DQQVKQNSPSLSVQEGRISILNCDYTNSMFDYFLWYKKYPAEGPTFLISISSIKDKNEDGRFTVFLNKSAKHLSLHIVPSQPGDSAVYFCAANTNAGKSTFGDGTTLTVKP
Vbeta: DTGVSQDPRHKITKRGQNVTFRCDPISEHNRLYWYRQTLGQGPEFLTYFQNEAQLEKSRLLSDRFSAERPKGSFSTLEIQRTEQGDSAMYLCASSTGTAEQYFGPGTRLTVT
In the case of B6, the binding result in experiment [1] and in experiment [4] was “recognises” in each case.

B7: TCR20 (TCR, V domains shown)
Valpha: DAKTTQPPSMDCAEGRAANLPCNHSTISGNEYVYWYRQIHSQGPQYIIHGLKNNETNEMASLIITEDRKSSTLILPHATLRDTAVYYCIVRLNSGNTPLVFGKGTRLSVIA
Vbeta: EAGVAQSPRYKIIEKRQSVAFWCNPISGHATLYWYQQILGQGPKLLIQFQNNGVVDDSQLPKDRFSAERLKGVDSTLKIQPAKLEDSAVYLCASSPTFPAGDRDTQYFGPGTRLTVL
For the molecule B7, the binding result was “recognises” in experiment [1], “no recognition” in experiment [2], “no recognition” in experiment [3] and “recognises” in experiment [4].

B8: A11 KRAS TCR_141_7 (TCR, V domains shown)
Valpha: AQSVTQPDIHITVSEGASLELRCNYSYGATPYLFWYVQSPGQGLQLLLKYFSGDTLVQGIKGFEAEFKRSQSSFNLRKPSVHWSDAAEYFCAVTGGGNKLTFGTGTQLKVEL
Vbeta: DTGVSQDPRHKITKRGQNVTFRCDPISEHNRLYWYRQTLGQGPEFLTYFQNEAQLEKSRLLSDRFSAERPKGSFSTLEIQRTEQGDSAMYLCASSLAGETGELFFGEGSRLTVL
As for B8, the binding result in experiment [3] is recorded as “recognises”.

B9: TCR17 (TCR, V domains shown)
Valpha: KVTQAQTEISVVEKEDVTLDCVYETRDTTYYLFWYKQPPSGELVFLIRRNSFDEQNEISGRYSWNFQKSTSSFNFTITASQVVDSAVYFCALSEVHASGGSYIPTFGRGTSLIVHP
Vbeta: DVKVTQSSRYLVKRTGEKVFLECVQDMDHENMFWYRQDPGLGLRLIYFSYDVKMKEKGDIPEGYSVSREKKERFSLILESASTNQTSMYLCASSLGAGQHNSPLHFGNGTRLTVT
Consider B9, for which the binding result in experiment [1] is “no recognition”; in experiment [2] it was “no recognition”; in experiment [3] it was “recognises”; in experiment [4] it was “no recognition”.

B10: TCR18 (TCR, V domains shown)
Valpha: SQQGEEDPQALSIQEGENATMNCSYKTSINNLQWYRQNSGRGLVHLILIRSNEREKHSGRLRVTLDTSKKSSSLLITASRAADTASYFCATDEGGGADGLTFGKGTHLIIQP
Vbeta: DSGVTQTPKHLITATGQRVTLRCSPRSGDLSVYWYQQSLDQGLQFLIQYYNGEERAKGNILERFSAQQFPDLHSELNLSSLELGDSALYFCASSVTWGPYEQYFGPGTRLTVT
As to B10, the binding result in experiment [1], in experiment [2], in experiment [3] and in experiment [4] was “no recognition” throughout.

B11: A11 KRAS TCR_141_6 (TCR, V domains shown)
Valpha: SQQGEEDPQALSIQEGENATMNCSYKTSINNLQWYRQNSGRGLVHLILIRSNEREKHSGRLRVTLDTSKKSSSLLITASRAADTASYFCATDVFQGAQKLVFGQGTRLTINP
Vbeta: EAGVAQSPRYKIIEKRQSVAFWCNPISGHATLYWYQQILGQGPKLLIQFQNNGVVDDSQLPKDRFSAERLKGVDSTLKIQPAKLEDSAVYLCASSIETSYEQYFGPGTRLTVT
For the molecule B11, the binding result in experiment [1] and in experiment [4] was “recognises” each time.

B12: A11 KRAS TCR_129_2 (TCR, V domains shown)
Valpha: SQQGEEDPQALSIQEGENATMNCSYKTSINNLQWYRQNSGRGLVHLILIRSNEREKHSGRLRVTLDTSKKSSSLLITASRAADTASYFCASSGGGADGLTFGKGTHLIIQP
Vbeta: KAGVTQTPRYLIKTRGQQVTLSCSPISGHRSVSWYQQTPGQGLQFLFEYFSETQRNKGNFPGRFSGRQFSNSRSEMNVSTLELGDSALYLCASSLGGAGETQYFGPGTRLLVL
For the molecule B12, the binding result in experiment [3] is given as “recognises”.
